Laboratory results published in patent US20240101645A1 (HENRY M JACKSON FOUNDATION FOR THE ADVANCEMENT OF MILITARY …, published 2024).

Assays:
[1] = biological target: T1, HCoV-OC43 spike antigens (bead panel) (HCoV-OC43, UniProt P36334 14-1297); experiment: multiplex bead assay
T1 sequence: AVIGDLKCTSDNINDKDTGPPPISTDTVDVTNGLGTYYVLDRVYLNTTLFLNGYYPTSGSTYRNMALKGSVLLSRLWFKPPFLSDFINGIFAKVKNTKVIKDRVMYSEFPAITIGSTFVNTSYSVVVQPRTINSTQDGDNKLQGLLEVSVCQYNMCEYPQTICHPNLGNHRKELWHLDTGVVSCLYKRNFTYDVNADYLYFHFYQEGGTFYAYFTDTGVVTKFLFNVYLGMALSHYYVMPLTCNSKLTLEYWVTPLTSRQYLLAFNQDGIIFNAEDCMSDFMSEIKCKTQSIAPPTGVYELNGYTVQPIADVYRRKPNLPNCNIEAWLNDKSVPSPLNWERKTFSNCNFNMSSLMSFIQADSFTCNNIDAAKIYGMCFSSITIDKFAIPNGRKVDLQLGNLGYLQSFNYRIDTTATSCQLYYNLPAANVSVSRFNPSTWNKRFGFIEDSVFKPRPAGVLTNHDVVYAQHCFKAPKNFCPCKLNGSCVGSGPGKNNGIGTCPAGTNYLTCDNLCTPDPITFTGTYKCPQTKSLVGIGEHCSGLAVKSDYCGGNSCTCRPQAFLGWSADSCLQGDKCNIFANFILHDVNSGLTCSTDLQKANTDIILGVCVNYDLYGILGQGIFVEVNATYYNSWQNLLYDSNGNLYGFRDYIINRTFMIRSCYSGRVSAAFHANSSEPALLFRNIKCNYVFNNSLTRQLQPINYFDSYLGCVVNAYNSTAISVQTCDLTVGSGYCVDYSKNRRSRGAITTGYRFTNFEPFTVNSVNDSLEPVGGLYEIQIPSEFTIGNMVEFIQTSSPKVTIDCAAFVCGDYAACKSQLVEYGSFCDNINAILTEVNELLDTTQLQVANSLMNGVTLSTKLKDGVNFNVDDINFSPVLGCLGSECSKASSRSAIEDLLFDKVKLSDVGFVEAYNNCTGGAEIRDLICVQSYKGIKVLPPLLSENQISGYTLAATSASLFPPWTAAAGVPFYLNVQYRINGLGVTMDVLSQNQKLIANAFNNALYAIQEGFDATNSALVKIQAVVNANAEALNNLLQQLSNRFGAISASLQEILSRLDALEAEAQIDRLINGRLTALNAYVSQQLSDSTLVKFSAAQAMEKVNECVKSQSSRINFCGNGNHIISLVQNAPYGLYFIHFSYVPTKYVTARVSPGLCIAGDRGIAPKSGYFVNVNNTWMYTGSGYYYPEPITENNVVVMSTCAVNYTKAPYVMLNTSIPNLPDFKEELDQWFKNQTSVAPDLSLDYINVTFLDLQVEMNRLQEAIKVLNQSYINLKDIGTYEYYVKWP

[2] = biological target: T2, HCoV-229E spike antigens (bead panel) (HCoV-229E, UniProt P15423 16-1115); experiment: multiplex bead assay
T2 sequence: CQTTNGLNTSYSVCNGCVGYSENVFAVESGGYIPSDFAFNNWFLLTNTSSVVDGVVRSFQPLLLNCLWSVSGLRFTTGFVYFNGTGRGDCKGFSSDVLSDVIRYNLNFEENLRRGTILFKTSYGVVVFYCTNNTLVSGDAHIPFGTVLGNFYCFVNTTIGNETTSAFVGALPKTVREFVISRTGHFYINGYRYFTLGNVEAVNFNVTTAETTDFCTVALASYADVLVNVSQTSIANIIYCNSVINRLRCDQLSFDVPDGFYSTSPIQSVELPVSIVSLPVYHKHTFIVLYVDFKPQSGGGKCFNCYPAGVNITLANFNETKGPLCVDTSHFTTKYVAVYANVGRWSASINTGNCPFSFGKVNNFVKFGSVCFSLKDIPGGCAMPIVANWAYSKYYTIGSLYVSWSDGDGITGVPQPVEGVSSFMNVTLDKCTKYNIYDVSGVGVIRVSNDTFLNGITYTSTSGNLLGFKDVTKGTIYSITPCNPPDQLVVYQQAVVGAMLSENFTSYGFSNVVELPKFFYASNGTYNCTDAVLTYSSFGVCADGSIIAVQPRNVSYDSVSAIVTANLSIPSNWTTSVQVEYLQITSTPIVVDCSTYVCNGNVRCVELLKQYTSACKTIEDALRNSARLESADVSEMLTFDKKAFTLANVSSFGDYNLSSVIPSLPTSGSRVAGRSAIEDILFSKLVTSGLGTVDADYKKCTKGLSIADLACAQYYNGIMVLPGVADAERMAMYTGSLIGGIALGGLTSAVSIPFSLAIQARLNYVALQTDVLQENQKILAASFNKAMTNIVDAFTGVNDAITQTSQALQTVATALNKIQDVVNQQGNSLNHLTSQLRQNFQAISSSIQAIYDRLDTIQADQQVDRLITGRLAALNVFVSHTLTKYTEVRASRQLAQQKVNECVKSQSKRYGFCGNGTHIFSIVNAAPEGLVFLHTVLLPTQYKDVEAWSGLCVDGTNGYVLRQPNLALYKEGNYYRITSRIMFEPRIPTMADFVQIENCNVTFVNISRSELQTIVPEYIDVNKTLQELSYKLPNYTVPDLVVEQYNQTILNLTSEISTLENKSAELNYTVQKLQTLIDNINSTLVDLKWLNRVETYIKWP

[3] = biological target: SARS-CoV-2 S on pseudovirions (Wuhan Hu-1 / IL1/2020, last 18 amino acids removed) (SARS-CoV-2, UniProt P0DTC2 14-1273); experiment: cell-based or functional assay

B1: COV_1118 (antibody, V domains shown)
VH: EVQLVESGGGLVKPGGSLRLSCAASGFSFSNYNMNWVRQAPGKGLEWVSYISSSSSYIYYADSVKGRFTISRDNAKNSLYLQMNSLRGEDTAVYSCAREASGAYYFDRSGYFDYWGQGTLVTVSP
VL: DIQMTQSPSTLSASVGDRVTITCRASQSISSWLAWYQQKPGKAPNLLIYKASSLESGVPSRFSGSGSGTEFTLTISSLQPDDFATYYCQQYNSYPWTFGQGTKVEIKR
notes: human IgG1
B1: no binding [1]; no binding [2].

B2: COV_1154 (antibody, V domains shown)
VH: EVQLVESGGGLVKPGGSLRLSCAASGFRFSDYNMNWVRQAPGKGLEWVSYISSSSSYIYYADSVKGRFTISRDNAKNSLYLQMNSLRGEDTAVYSCAREASGAYYFDRSGYFDYWGQGTLVTVSP
VL: DIQMTQSPSTLSASVGDRVTITCRASQSISSWLAWYQQKPGKAPNLLIYKASSLESGVPSRFSGSGSGTEFTLTISSLQPYDFATYYCQQYNSYPWAFGQGTKVEMKR
notes: human IgG1
B2: no binding [1]; no binding [2].

B3: COV_1136 (antibody, V domains shown)
VH: EVQLVESGGGLVKPGGSLRLSCAASGFTFSDCNMNWVRQAPGKGLEWVSSISSRSSYIYYADSVKGRFTISRDNAKNSLYLQMNSLRAEDTAVYSCAREASGAYYFDRSGYFDYWGQGTLVTVSP
VL: DIQMTQSPSTLSASVGDRVTITCRASQSISSWLAWYQQKPGKAPNLLIYKASSLESGVPSRFSGSGSGTEFTLTISSLQPDDFATYYCQQYNTYPWTFGQGTKVEIKR
notes: human IgG1
B3: no binding [1]; no binding [2].

B4: COV_2004 (antibody, V domains shown)
VH: QVQLVQSGAEVKKPGASVKVSCKASGYTFTGYYMHWVRQAPGQGLEWMGRINPSSGGTNYAQKFQGRVTMTRDTSISTAYMELSSLRSDDTAVYYCATDGDDGENWFDPWGQGTLVIVSS
VL: DIQMTQSPSSLSASVGDRVTITCRASQGISSWLAWYQQKPEKAPKSLIYAASSLQSGVPSRFSGSGSGTDFTLTISSLQPEDFATYYCQQYNSYPYTFGQGTKLEIK
notes: human IgG1
With B4 the binding result [2] was “no binding”, the “Mean IC50, pSV neutralization” value [3] was 0.04 µg/ml and the “Mean IC80, pSV neutralization” value [3] was 3.64 µg/ml.

B5: COV_2123 (antibody, V domains shown)
VH: EVQLVESGGGVVQPGRSLRLSCAASGFTFSSYAMHWVRQAPGKGLEWVAVLSYDGSNKYNADSVKGRFTISRDNSKNTLYLQMNSLRVEDTAMYYCARDGVSVTMVRGVIGPLCDYWGQGTLVTVSS
VL: not shown
notes: human IgG1
In the case of B5, the binding result [1] is reported as “no binding” and the “Mean IC80, pSV neutralization” value [3] is reported as 0.03 µg/ml.

B6: COV_1025 (antibody, V domains shown)
VH: QVQLVESGGGVVQPGRSLRLSCAASGFTFNTYAMHWVRQAPGKGLEWVAIISYDGGNKYYADSMKGRFTISRDNSKNTLYLQMNSLRAEDTAVYYCARARTGNYYYGMDVWGQGTTVTVSS
VL: not shown
notes: human IgG1
B6: no binding [1]; no binding [2].

B7: COV_2137 (antibody, V domains shown)
VH: EVQLVESGGGLVKPGGSLRLSCAASGFTFSSYTMNWVRQAPGKGLEWVSSISSGSSFIYYADSLRGRFTISRDNAKNSLYLQMNSLRAEDTAVYYCARAPEPQSVIYAYWYFDLWGRGTLVTVSS
VL: QSALTQPASVSGSPGQSITFSCTGTSSDVGSYNLVSWYQQYPGKAPKLMIYEVNKRPSGVSNRFSGSKSGNTASLTISGLQAEDEADYYCCSYAGSSTFYVFGTGTKVTVLG
notes: human IgG1
B7: no binding [1]; no binding [2].

B8: COV_3053 (antibody, V domains shown)
VH: EVQLVESGGGLVQPGRSLRLSCTASGFTLGDYAMTWVRQAPGKGLEWLGIIRNKRYGETKQYAASVKGRFTFSRDDSKGIGYLQRLSLKIEDTGVYYCTREHIVRDDAFDVWGQGTTVTVSS
VL: DIVMTQSPDSLAVSLGERATINCKSSQSVLYSSNNKNYIAWYQQRPGQPPKLLIYWTSTRASGVPDRFSGSGSGTDFALTISSLQAEDVAVYYCQQYYTIPRTFGQGTKVEIK
notes: human IgG1
B8: no binding [1]; no binding [2].
